{
  "source": "paper PMC3158298",
  "molecular_target": "CC-Aβ_(1-40)E22Δ",
  "assay": "split tetra-Cys FlAsH fluorescence",
  "data": [
    {"substance": "CC-Aβ_(1-40)E22Δ (peptide)", "values": [
      {"measurement": "FlAsH fluorescence intensity relative to CC-Aβ (1-40)", "value": 1.5, "unit": "fold"}
    ]}
  ]
}
